Assay results reported in patent US20190336574A1 (TRUSTEES OF PRINCETON UNIVERSITY, published 2019).

Assays:
[1] = target: T1, His6-SND1ΔC (SND1 residues 1-339) (human, UniProt Q7KZF4 1-339); test: schematic that sums up the GST pull-downs of His6-SND1ΔC
T1 construct: not shown: N-terminal His tag (His6, His8 or His) with TEV site, pQlink vector
T1 sequence: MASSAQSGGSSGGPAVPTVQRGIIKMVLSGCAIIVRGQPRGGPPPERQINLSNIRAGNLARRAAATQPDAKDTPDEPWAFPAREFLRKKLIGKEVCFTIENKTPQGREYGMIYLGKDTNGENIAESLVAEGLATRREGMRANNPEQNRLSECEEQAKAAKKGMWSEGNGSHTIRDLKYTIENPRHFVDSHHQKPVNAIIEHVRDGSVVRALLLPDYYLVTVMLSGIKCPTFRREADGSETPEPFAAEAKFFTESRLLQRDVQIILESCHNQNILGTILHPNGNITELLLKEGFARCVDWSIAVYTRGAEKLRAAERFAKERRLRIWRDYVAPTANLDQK
Text: FIGS. 7A-E represents determination of key regions and residues mediating the MTDH-SND1 interaction. (FIG. 7A) Schematics of MTDH fragments and mutants with indicated SND1-binding capability. + indicates binding and − indicates no binding based on results shown below. Two putative nuclear localization signals are residues 432-451 for NLS2 and residues 561-580 for NLS3. […] (FIG. 7B) Pulldown of His6-SND1ΔC by GST-tagged MTDH fragments with indicated boundaries. The bound proteins were examined by SDS-PAGE and visualized by Coomassie blue staining. […] For (FIG. 7B) and (FIG. 7C), 1/10 of the His6-SND1ΔC input was shown, and GST alone was used as a negative control. Representative results of 3 independent experiments are shown. (FIG. 7D, FIG. 7E) Lysates from HEK293T cells expressing the indicated ectopic human SND1, AGO2 or MTDH were immunoprecipitated with anti-Myc and immunoblotted with the indicated antibodies.
To further test whether the physical interaction with SND1 is critical for the function of MTDH, detailed analysis on the interaction of the proteins was conducted. SND1 contains four N-terminal Staphylococcal nuclease (SN) repeats and a C-terminal Tudor-SN hybrid domain. […] This allowed us to use the SND1ΔC fragment for the following in vitro binding studies.

[2] = target: T2, murine SND1, wild type (mouse, UniProt Q78PY7 1-910); test: anti-MTDH co-IP from PyMT;Mtdh-/- MECs reconstituted with murine MTDH, western blot
T2 construct: Endogenous protein of murine PyMT mammary tumor cells; also called SND1 (in PyMT tumor cells); WT shRNA-resistant murine SND1
T2 sequence (looked up): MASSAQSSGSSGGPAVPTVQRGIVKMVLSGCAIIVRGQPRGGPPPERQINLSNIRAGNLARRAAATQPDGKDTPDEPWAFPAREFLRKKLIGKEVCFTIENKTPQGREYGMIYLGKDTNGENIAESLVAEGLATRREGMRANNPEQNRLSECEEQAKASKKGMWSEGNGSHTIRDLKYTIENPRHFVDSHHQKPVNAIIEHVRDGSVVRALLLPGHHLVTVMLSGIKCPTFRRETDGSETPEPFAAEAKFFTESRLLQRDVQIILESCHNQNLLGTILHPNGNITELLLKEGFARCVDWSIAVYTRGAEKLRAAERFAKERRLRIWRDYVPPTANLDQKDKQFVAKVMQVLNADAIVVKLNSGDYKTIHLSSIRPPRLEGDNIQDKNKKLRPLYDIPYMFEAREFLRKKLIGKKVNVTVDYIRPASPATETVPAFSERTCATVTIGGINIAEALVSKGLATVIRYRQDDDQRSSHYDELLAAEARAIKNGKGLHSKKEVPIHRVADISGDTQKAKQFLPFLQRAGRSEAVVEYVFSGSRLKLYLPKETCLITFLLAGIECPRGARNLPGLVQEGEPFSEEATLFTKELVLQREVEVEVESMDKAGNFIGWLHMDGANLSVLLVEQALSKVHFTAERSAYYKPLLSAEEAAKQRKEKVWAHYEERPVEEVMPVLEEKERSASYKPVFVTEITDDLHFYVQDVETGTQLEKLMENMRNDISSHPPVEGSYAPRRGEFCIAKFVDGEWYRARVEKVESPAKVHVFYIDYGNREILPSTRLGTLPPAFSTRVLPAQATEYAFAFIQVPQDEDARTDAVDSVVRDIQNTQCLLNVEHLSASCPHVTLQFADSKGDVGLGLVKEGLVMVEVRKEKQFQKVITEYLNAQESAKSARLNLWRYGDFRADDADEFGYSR
Method: (FIG. 8A, FIG. 8E) Lysates from PyMT;Mtdh−/− MECs reconstituted with vector control, WT or mutant murine MTDH were immunoprecipitated with anti-MTDH antibody and immunoblotted for indicated proteins. (FIG. 8B, FIG. 8F) Mammosphere assays were performed with PyMT;Mtdh−/− pMECs reconstituted with indicated Mtdh constructs. (FIG. 8C, FIG. 8D, FIG. 8G, FIG. 8H) In vivo tumor formation (FIG. 8C, FIG. 8G for tumor incidence; FIG. 8D, FIG. 8H for tumor volumes) were performed at limiting numbers using PyMT;Mtdh−/− pMECs reconstituted with indicated WT or mutant MTDH. *Note: mouse W391D MTDH corresponds to human W394D MTDH; and mouse W398D MTDH corresponds to human W401D MTDH. Statistics: (FIG. 8B, […]) Student's t-test. (FIG. 8C, FIG. 8G) Limiting dilution analysis. (FIG. 8D, FIG. 8H) Mann-Whitney test. Data represent mean±SEM. ***p<0.001, **p<0.01, *p<0.05.
Immunoprecipitation and western blot For immunoprecipitation (IP) experiments, cultured cells were washed in cold PBS and lysed in lysis buffer (20 mM Tris pH 7.4, 0.15 M NaCl, 1 mM EDTA, 1 mM EGTA, 1% Tx-100, 0.0025 M Na2P2O7, 1 mM α-glycerolphosphate, 1 mM Na3VO4, and 1 mM NaF) with an EDTA-free protease inhibitor mixture (Roche Applied Science) and PMSF. Cell lysates were then incubated on ice for 10 min, centrifuged, and precleared by incubating with protein A/G beads (Santa Cruz Biotechnology) for 1 h at 4° C. […]

[3] = target: T3, HA-SND1, full-length human, wild type (human, UniProt Q7KZF4 1-910); test: competition in co-IP, 50 uM peptide; competitor MTDH
T3 construct: Full-length, HA-tagged; Expressed in HEK293T cells, tested in lysate; also called HA-tagged SND1; WT HA-SND1
T3 sequence: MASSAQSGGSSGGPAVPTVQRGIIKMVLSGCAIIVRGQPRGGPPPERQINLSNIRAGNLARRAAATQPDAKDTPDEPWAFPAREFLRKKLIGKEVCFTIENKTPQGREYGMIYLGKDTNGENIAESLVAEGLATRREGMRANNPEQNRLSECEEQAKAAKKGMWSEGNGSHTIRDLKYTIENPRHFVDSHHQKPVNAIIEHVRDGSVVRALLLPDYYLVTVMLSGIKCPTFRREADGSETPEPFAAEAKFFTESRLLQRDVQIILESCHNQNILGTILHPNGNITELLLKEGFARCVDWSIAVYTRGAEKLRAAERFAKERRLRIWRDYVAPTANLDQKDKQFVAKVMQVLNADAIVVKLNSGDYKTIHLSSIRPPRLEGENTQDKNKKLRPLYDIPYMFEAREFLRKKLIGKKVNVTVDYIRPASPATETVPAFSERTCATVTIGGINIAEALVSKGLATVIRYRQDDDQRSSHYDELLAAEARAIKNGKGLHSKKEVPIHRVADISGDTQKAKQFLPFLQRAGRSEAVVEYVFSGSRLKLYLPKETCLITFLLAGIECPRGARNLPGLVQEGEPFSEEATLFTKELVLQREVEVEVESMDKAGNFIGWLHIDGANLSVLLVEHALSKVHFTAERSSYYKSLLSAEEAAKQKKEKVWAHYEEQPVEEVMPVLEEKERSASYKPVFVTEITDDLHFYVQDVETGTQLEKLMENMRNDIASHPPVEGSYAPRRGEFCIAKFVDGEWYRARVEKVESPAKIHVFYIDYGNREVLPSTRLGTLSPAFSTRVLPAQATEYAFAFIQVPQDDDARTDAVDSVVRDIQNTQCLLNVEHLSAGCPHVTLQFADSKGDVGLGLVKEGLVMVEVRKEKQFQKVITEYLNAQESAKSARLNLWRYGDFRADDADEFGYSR
Method: 293 T cells were co-transfected with HA-SND1 and MYC-MTDH. After 48 hours, the cells were collected and subject to immunoprecipitation assay. Cell lysate was incubated with anti-HA antibody or IgG overnight followed by a two hour incubation with Protein A/G beads to pull down HA-SND1 protein. The beads were washed with lysis buffer and split into five fractions.
The elution fractions and beads were collected for western blot. (FIGS. 26C and 26D) Cell lyaste was split into 6 fractions. One of the fractions was incubated with IgG and the rest were incubated with anti-HA antibody plus either buffer or indicated peptides. After 24 hours, the lysate was incubated with Protein A/G beads then the beads was washed followed by wash buffer. 50 uM of peptides was used in all the assays.

B1: GST-MTDH 406-470 (other)
fusion protein: DEERASLLKSQEPIPDDQKVSDDDKEKGEGALPTGKSKKKKKKKKKQGEDNSTAQDTEELEKEIR
B1: no binding [1].

B2: W398D* (other, mouse, UniProt Q80WJ7 1-579, looked up)
single chain: MAARSWQDELAQQAEEGSARLRELLSVGLGFLRTELGLDLGLEPKRYPGWVILVGTGALGLLLLFLLGYGWAAACAGARKKRRSPPRKREEAAPPTPAPDDLAQLKNLRSEEQKKKNRKKLPEKPKPNGRTVEVPEDEVVRNPRSITAKQAPETDKKNEKSKKNKKKSKSDAKAVQNSSRHDGKEVDEGAWETKISHREKRQQRKRDKVLTDSGSLDSTIPGIENIITVTTEQLTTASFPVGSKKNKGDSHLNVQVSNFKSGKGDSTLQVSSRLNENLTVNGGGWSEKSVKLSSQLSEEKWNSVPPASAGKRKTEPSAWTQDTGDTNANGKDWGRNWSDRSIFSGIGSTAEPVSQSTTSDYQWDVSRNQPYIDDEWSGLNGLSSADPSSDWNAPAEEDGNWVDEDRASLLKSQEPISNDQKVSDDDKEKGEGALPTGKSKKKKKKKKKQGEDNSHTQDTEDLEKDTREELPVNTSKARPKQEKACSLKTMSTSDPAEVLIKNSQPVKTLPPAISAEPSITLSKGDSDNSSSQVPPMLQDTDKPKSNAKQNSVPPSQTKSETNWESPKQIKKKKKARRET
notes: point mutant W398D, murine numbering; named in the legend's footnote and on the sheet; also called mouse W398D MTDH (corresponds to human W401D MTDH)
B2: no binding [2].

B3: Peptide-401A (PNSDWNAPAEEAGNW) (peptide)
peptide: PNSDWNAPAEEAGNW
notes: also called peptide comprising the single point mutation W401A
For B3, the “effectiveness in blocking the MTDH-SND1 interaction relative to the wild type peptide” value [3] was ~0.5 fold of wild type peptide.
